From patent US7223834

Tested on: 41-mer peptide substrate (41-PS), QTVTWPDMELPLPRNITEGE-ARGSVILTVKPIFEVSPSPL-(BIOTINYL)K

aggrecan degrading metallo protease (ADMP)
cleavage of 41-PS to the 21-mer product, HPLC assay: Effect of incubation time was evaluated and found to be linear over the timecourse of the assay
